This note sets out measurements from patent publication US20230265170A1.

Holding throughout (experiment): cell-based or functional assay
The target of assay [1] is SARS-CoV-2 Omicron BA.2 spike (S) protein (SARS-CoV-2).
For assay [2], the target named is SARS-CoV-2 Omicron BA.1 spike (S) protein (SARS-CoV-2).
For assay [3], the target named is SARS-CoV-2 Omicron BA.3 spike (S) protein (SARS-CoV-2).

Chain of AZD8895 (antibody) (VH): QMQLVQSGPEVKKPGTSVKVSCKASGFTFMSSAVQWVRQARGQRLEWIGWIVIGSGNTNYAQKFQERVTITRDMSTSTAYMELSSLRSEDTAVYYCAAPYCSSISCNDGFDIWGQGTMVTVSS
Chain of AZD8895 (antibody) (VL): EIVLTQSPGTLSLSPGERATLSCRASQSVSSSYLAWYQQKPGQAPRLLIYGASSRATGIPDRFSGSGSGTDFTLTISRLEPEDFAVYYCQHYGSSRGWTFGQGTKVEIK

For the substance Ly-CoV16 (antibody), the IC50, pseudoviral neutralization in assay [1], in assay [2] and in assay [3] was over 10 µg/mL in each case.
For AZD8895 (antibody), the figures for the IC50, pseudoviral neutralization in assay [1], in assay [2] and in assay [3] were 1.33 µg/mL, 0.246 µg/mL and over 10 µg/mL, respectively.
The like results for ADG20 (antibody) were, in that order, over 10 µg/mL, 0.348 µg/mL and over 10 µg/mL.
The like results for AZD1061 (antibody) were, in that order, 0.008 µg/mL, 0.308 µg/mL and 0.019 µg/mL.
ADG30 (antibody): the IC50, pseudoviral neutralization in assay [1], in assay [2] and in assay [3] was over 10 µg/mL each time.
As to Ly-CoV555 (antibody), the IC50, pseudoviral neutralization in assay [1], in assay [2] and in assay [3] was over 10 µg/mL in each case.
Take REGN10933 (antibody): the IC50, pseudoviral neutralization in assay [1], in assay [2] and in assay [3] was over 10 µg/mL throughout.
REGN10987 (antibody): the results for the IC50, pseudoviral neutralization in assay [1], in assay [2] and in assay [3] were 0.516 µg/mL, over 10 µg/mL and over 10 µg/mL, respectively.
Take S309 (antibody): the results for the IC50, pseudoviral neutralization in assay [1], in assay [2] and in assay [3] were 0.638 µg/mL, 0.313 µg/mL and 0.311 µg/mL, respectively.
On to ADG10 (antibody), for which the IC50, pseudoviral neutralization in assay [1], in assay [2] and in assay [3] was over 10 µg/mL in each case.
Consider Ly-CoV1404 (antibody), for which the IC50, pseudoviral neutralization in assay [1] worked out at 0.001 µg/mL; in assay [2] it was 0.002 µg/mL; in assay [3], 0.002 µg/mL.
